From patent US5939284A, “Protein phosphatase 1 binding protein, R5” (Smithkline Beecham Corporation, priority 1996, dated 1999)
One block for each molecule: values may come before it.

Experiments:
[1] = target: Human PP1g (catalytic subunit of protein phosphatase 1), bacterially expressed (human) (UniProt P36873)
phosphorylase a = assay: Blot overlay with 32P labelled phosphorylase a; type: binding; conditions: proteins electrophoresed, transferred to nitrocellulose, probed with 32P labelled phosphorylase a; blot not shown
[2] = target: PP1g (catalytic subunit of protein phosphatase 1); assay: Protein phosphatase assay: phosphorylase phosphatase activity of PP1; type: biochemical, human; conditions: freshly prepared preparation; 32P-labelled phosphorylase as substrate; preincubated 15 minutes at 30° C.; FIG. 3; read-out: IC50 for inhibition of the phosphorylase phosphatase activity of PP1
Description: Protein phosphatase assays were performed in the absence of divalent cations as described in Cohen et al, (1988), cited above. The catalytic subunit PP1g, described above in Example 2, was diluted in assay buffer to 1.5 U/ml (1.4 nM). Rabbit skeletal muscle glycogen phosphorylase was ^32 P-labelled by phosphorylase kinase to a stoichiometry of 1 mol phosphate per mol subunit as in Cohen et al, Meth. Enzymol. 159:390-408 (1988) and was 10 mM in the assays.
Assays were initiated with 0.01 ml ^32 P-labelled phosphorylase. One unit of activity is the amount of enzyme which catalyses the release of 1 mmol of [^32 P]phosphate per minute.

IC50, inhibition of phosphorylase phosphatase activity of PP1 [1]: 100 nM
Molecule: GST-GL fusion protein

IC50, inhibition of phosphorylase phosphatase activity of PP1 [1]: 100 nM
Molecule: GST-PPP1R5 fusion protein

Binding of phosphorylase a (phosphorylase a): bound
IC50 [2]: ~100 nM
B1: GST-GL: GST fusion protein of the rat liver glycogen binding subunit (GL) of protein phosphatase 1, bacterially expressed (protein)
chain: MAVDIEYSYSSMAPSLRRERFTFKISPKLNKPLRPCIQLGSKDEAGRMVAPTVQEKKVKKRVSFADNQGLALTMVKVFSEFDDPLDIPFNITELLDNIVSLTTAESESFVLDFPQPSADYLDFRNRLQTNHVCLENCVLKEKAIAGTVKVQNLAFEKVVKIRMTFDTWKSFTDFPCQYVKDTYAGSDRDTFSFDISLPEKIQSYERMEFAVCYECNGQSYWDSNKGKNYRITRAELRSTQGMTEPYNGPDFGISFDQFGSPRCSFGLFPEWPSYLGYEKLGPYY
